Data on one molecule can be found in patent US20110239311A1 (MEDIZINISCHE UNIVERSITAT INNSBRUCK, published 2011).

Experiment [1] has as its target T1, endogenous PKCalpha from Jurkat T cell lysate (human, UniProt P17252 2-672).
T1 construct: also called PKCα
Nature of the experiment: GST pull down from Jurkat T cell lysate, immunoblot. Here is the method:
(§1) GST pull down assay: 1×10⁷ Jurkat T cells were lysed in 1 ml lysis buffer (25 mM MES pH 6.5, 5 mM NaF, 1 mM Na₃VO₄, 2 mM EDTA, 150 mM NaCl, 0.5% TritonX-100, 50 μg/ml aprotinin and leupeptin). Lysates were precleared for 30 min at 4° C. Thereafter incubation with purified recombinant GST-NR2F6 fusion proteins for 3 h at 4° C., 5× washing in lysis buffer, SDS-PAGE under reducing conditions on Bis/Tris-buffered gels (Novex, San Diego, Calif.) was performed. Proteins were transferred onto a polyvinyl-difluoridon (PVDF) membrane (Millipore, Bedford, Mass.) by semi-dry blotting (90 mA, 80 min, 4° C.). […] Peroxidase-conjugated antibodies (Pierce, Rockford, Ill.) served as secondary reagent (1:5,000). For antigen detection enhanced chemiluminescence was used (Super Signal, Pierce, Rockford, Ill.).

The target of experiment [2] is T2, endogenous PKCtheta from Jurkat T cell lysate (human, UniProt Q04759 1-706).
T2 construct: also called PKCθ
T2 sequence (Q04759 whole entry): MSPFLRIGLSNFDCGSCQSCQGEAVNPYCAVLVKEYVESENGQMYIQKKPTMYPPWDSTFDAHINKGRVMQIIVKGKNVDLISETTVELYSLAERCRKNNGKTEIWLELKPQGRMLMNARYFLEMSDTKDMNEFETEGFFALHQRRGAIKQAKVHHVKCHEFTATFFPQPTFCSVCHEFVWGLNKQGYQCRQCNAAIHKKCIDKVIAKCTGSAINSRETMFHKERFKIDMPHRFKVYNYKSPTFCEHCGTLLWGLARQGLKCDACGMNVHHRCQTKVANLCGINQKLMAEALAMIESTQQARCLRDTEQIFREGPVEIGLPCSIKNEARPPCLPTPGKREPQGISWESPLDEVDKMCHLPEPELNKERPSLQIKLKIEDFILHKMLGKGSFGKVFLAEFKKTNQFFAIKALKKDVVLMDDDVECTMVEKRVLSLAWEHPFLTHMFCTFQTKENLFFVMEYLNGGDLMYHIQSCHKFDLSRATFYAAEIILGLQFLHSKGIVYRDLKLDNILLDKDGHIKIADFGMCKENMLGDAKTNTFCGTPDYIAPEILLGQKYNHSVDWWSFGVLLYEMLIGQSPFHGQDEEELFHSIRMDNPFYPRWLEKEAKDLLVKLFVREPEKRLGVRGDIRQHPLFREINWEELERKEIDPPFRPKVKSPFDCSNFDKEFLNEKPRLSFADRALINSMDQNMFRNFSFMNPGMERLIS
The description is as above. The procedure: as §1

B1: GST-NR2F6 fusion protein, wild-type, full-length (purified recombinant) (other)
chain: MAMVTGGWGGPGGDTNGVDKAGGYPRAAEDDSASPPGAASDAEPGDEERPGLQVDCVVCGDKSSGKHYGVFTCEGCKSFFKRSIRRNLSYTCRSNRDCQIDQHHRNQCQYCRLKKCFRVGMRKEAVQRGRIPHSLPGAVAASSGSPPGSALAAVASGGDLFPGQPVSELIAQLLRAEPYPAAAGRFGAGGGAAGAVLGIDNVCELAARLLFSTVEWARHAPFFPELPVADQVALLRLSWSELFVLNAAQAALPLHTAPLLAAAGLHAAPMAAERAVAFMDQVRAFQEQVDKLGRLQVDSAEYGCLKAIALFTPDACGLSDPAHVESLQEKAQVALTEYVRAQYPSQPQRFGRLLLRLPALRAVPASLISQLFFMRLVGKTPIETLIRDMLLSGSTFNWPYGSGQ
notes: GST is placed at the N-terminus from the name 'GST-NR2F6' only; also called recombinant NR2F6; not shown: glutathione S-transferase (GST) fusion tag
As to B1, the binding result in experiment [1] and in experiment [2] was “binds” in each case.
